Assay: yeast display, Sf9 membrane polyspecificity reagent, FACS + sequencing; frameworks hold sequencing errors
Outline: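 Genes from sorted yeast were amplified by colony PCR, read by MiSeq 2 × 250 sequencing and filtered on CDR length. These cells carried a synthetic nanobody library in Saccharomyces cerevisiae BJ5465 and were sorted by FACS into low and high (top ~1%) gates on anti-HA and streptavidin fluorescence. Polyreactivity is labelled according to the gate of origin.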

| Sequence | polyreactivity (PSR sort gate) |
| --- | --- |
| QVQLVESGGGLVQSGGSLRLSCAASGSTFHTYAMGWYRQAPGKERELFASIRTSGGSTNADSVKGRFTISRDNAKNTVYLQMNSLNPEDTAVYYCAAYYFYGLYDAYYYWGQGTEVTVSS | low polyreactivity |
| QVQLVESGGGLVQSGGSLRLSCAASGSTFLWYAMGWYRPAPGKERELVASISRGGGTDYADSVKGRFTISRDNAKKTVYLQMNSLIPEDTAVYYCAATGVYRYDHWGQGTQVTVSS | low polyreactivity |
| QVQLVESGGGLVQSGGSLRLSCAASGSTFNGYAMGWYRQAPGKERELVAGITGSGGSTYYADSVKGRFTISRDNAKNTVYLQMNSLKPEDTAVYYCKAVHWGGSYWGLDYWGQGTQVTVSS | low polyreactivity |
| QVQLVESGGGLVQSGGSLRLSCAASGSTSINYAMGWYRQAPGKERELVATISRGGSTTYADSVKGRFTISRDNAKNTVYLQMNSLKPEATAVYYCAKDRYPADEDYWGQGTQVTVSS | low polyreactivity |
| QVQLVESGGGLVQSGGSLRLSCAASGYIFGYYAMGWYRQAPGKERELVAAITGTDDTNYADSVKGRFTISRDNAKNTVYLQMNSLIPEDTAVYYCAAYSWWNEYDYWGQGTQVTVSS | high polyreactivity |
| QVQLVESGGGLVQSGGSLRLSCAPSGRIFAGYTMGCYRQAPGKERELVAAISWSGGRTYYADSVKGRFTISRDNAKNTVYLQMNSLKPEDTAVYYCAVGFRTLHGDYGYWGQGTQVTVSS | high polyreactivity |
| QVQLVESGGGLVQSGGSLRLSCCACGRIFYSYSMGRYRQAPGKDRELVAANTCRGGSTYYADSVKGRFTISRDNAKNPVYLQMIRLKPEDTAVSYCATSSHTPYYSYIVERIHYDYWGQGTQVTVSS | high polyreactivity |
| QVQLVESGGGLVQSGGSLRLSCDPSGSIFSHNAMGWYRQAPGKERELVAAITASSGSTYYADSVKGRFTISRDNAKNTVYLQMNSLKPEVNAVYFCARVSRKRHQQDGKYGYWGQGTQVTVSS | high polyreactivity |
| QVQLVESGGGLVQSGGSLRLTCAASGRTFPYYAMGWYRQAPGKERELVAAISRRGGSTYYADSVKGRFTISRDNAMNTVYLQMNSLKPEDTAVYYCAAAGGVSGGEYDYWGQGTQVTVSS | high polyreactivity |
| QVQLVESGGGLVQSGVSLRLSCAASGIIFFSNTMGWYRQAPGKEREFVAAITWSTGNTYYADSVKGRFTISRDNAKNTVYLQMNSLKPEDTAVYYCYAEFLVITWYGGVEFDYWGQGTQVTVSS | low polyreactivity |
| QVQLVESGGGLVQVGGSLRLSCAASGGIFSGNAMGWSRPAPGKERELVAGITNGGRTTYADSVKGRFTISRDNAKNTVYLQMNSLKPEDTAVYYCNVYVSAGEEDEYWGQGTQVTVSS | low polyreactivity |
| QVQLVESGGGLVQVGGSLRLSCAASGITLSYYAMGWYRQAPGKEREFVASITVSRTSTYYADSVKGRFTISRDNAKNTVYLQMNSLKPEDTAVYYCAAYAYQYRFSGYGYWGQGTQVTVSS | low polyreactivity |
| QVQLVESGGGLVQVGGSLRLSCAASGITLTYYALGWYRQAPGKERELVAAIDSGGTTHYADSVKGRFTISRDNAKNTVYLQMNSLKPEDTAVYYCAARPTRGHWWYGYWGQGTQVTVSS | low polyreactivity |
| QVQLVESGGGLVQVGGSLRLSCAASGRTFWWYAMGWYRQAPGKERELVAAITRSGGSTYYADSVKGRFTISRDNAKYTVYLQMNSLKQEDTAVYYCAASHYGLLEYWGQGTQVTVSS | low polyreactivity |
| QVQLVESGGGLVQVGGSLRLSCAASGRTFYRYAMGWYRQAPGKERELVATINWTSGSTYYADSVKGRFTISRDKAKNTVYLQMNSLKPEDTAVYYCATVPHGKDTFGYWGQGTQVTVSS | high polyreactivity |
| QVQLVESGGGLVRAGGSLRLSCAASGRNKDNVMGWYRQAPGKERELVAAITRSAGRTYYADSVKGRFTISRDNAKNTVYLQMNSLIPEDTAVYYFATADAHYSAAGEDYWGQGTQVTVSS | low polyreactivity |

| Sequence | polyreactivity (PSR sort gate) |
| --- | --- |
| QVQLVESGGGLVRAGGSLRLSCAASGSTFDINAMGWYRQAPGKERELVASITFSGGSTYYADSVKGRFTISRDNAKNTVYLQMNSLKPEDTAVYYCNKDEPQFSSYLYSFYPGYDYWGQGTQVTVSS | low polyreactivity |
| QVQLVESGGGLVRARGSLRLSWAASGNTFSSNAMGWYRQAPGKERELVAGITKSGGRTYYADSVKGSFTISRDNAKNTVYLQMNSLKPEDTAVYYCNRRACPYSIPYYYWGQGTQVTVSS | high polyreactivity |
| QVQLVESGGGRDQAGGSLRLSCAASGLTSYSNAMGWFRQAPGKERELVAAISRSGGSTYYADSVKGRFTISRDTAKNSVYLQMISLKAEDSAFYYCAASIWVYLLGGGYSDYDYWGQGTQETVSS | low polyreactivity |
| QVQLVESGGGRVQAGGRIRLRCAASGLIFPGYDMGWYSPAPGKERELVAAISDSGANTYYADSVKGRFTISRDNAKNTVYLQMTSLKQEDTAVYYCAADSSWWYGTSFGRFDYWGQGTQVTVSS | low polyreactivity |
| QVQLVESGGGSVQAGGRLRLSCAASGLIFAGYARGWYRQSPGKERELVAASSTSGGRTYYADSVKGRFTISRDNAKNTVYLQINSLTPEDTAVYYCAAYPVHGKTQELAKEDYWGQGTQVTVSS | high polyreactivity |
| QVQLVESGGGSVQAGGSLRLICAASGSTFSDYDMGWYRQAPGKERELVAAISIGGRTNYADSVKGRFTISRDNAKNTVYLQMNSLKPEDTAVYDCAADSQSIYAYWPGGGYGYWGQGTQVTLSS | low polyreactivity |
| QVQLVESGGGSVQAGGSLRLSCAASGIIFWYYTMGWYRQAPGKERELVAAISWSSGITYYADSVKGRFTISRDNAKNTVYLQMNSLKPEDTAVYYCAAAVSPHSEGFGEYNYWGQGTQVTVSS | low polyreactivity |
| QVQLVESGGGSVQAGGSLRLSCAASGSIYYYAMGWYIQAPGKERELVAAISRSGGSTYYADSVKGRFTISRDNAKNTVYLQMNCLKPEDTAVYYCAKGYRGYSYGYCGQGTQVTVSS | high polyreactivity |
| QVQLVESGGGSVQAGGSLRLSCAASGYIFGVYDMGWYRQAPGKERELVAAISSGGSTNYADSVKGRFTISRDNAKNTVYLQMNSLKPEDTAVYYCNADYIFYYEYDYWGQGTQVTVSS | low polyreactivity |
| QVQLVESGGGVDQAGGSLRLSCAASGSTFHLYAMGCYRQAPGKERESVAAIRGRGGNTYADSVKGRFTISRDNAYNTVYLQMNSLKPEDTAVYYCAAPLLRDLRSPYSYNYWVQGTQVTVSS | low polyreactivity |
| QVQLVESGGGVDQAGVSLRLSCAASGIICFGYAMGWYRQAPGNERELVARITRSGASTYYADSVKGRFTISRDNAKKTVYLQMYSLTPEDTPVSYCAADYRKRYDYWGQGTQVTVSS | low polyreactivity |
| QVQLVESGGGVGQAGGSLRLSCAASGSNFKYYAMGWYRPAPGKERELVAVITSGGSTYYADSVKGRFTISRDNAKNTVYLQMNSLKPEDTAVYDCAAGVRAYNWGEYDYWGQGTQVTVSS | low polyreactivity |
| QVQLVESGGGVVEAGGSLRLSCAASGSTLGFYARGWYRQAPGKEWEFVAAITRSGTSTYYADSVKGRFTISRDNAKNTVYLQMTSLKPEDTAVYYCPAESYYGVPYDSWGQGTQVTLSS | high polyreactivity |
| QVQLVESGGGVVQAGGGLRLSCAASGRTFIGNAMGWYRQAPGKEREFVAYITLSGGSTYYADSVKGRFTISRDNATINVYLQMNSLKPEDRAVYYCADKRFFGYLGYNRGGSRYDYWGQGTQVTVSS | high polyreactivity |
| QVQLVESGGGVVQAGGMLRLSCAASGTTFDVYAMGGYRQAPGKEREFVAAITTSGGSTYYADSVKGRFSISRDNAKNTVYLEMYSLKPEVTAVYYCAAVWWKSFQGSSYRMNYWGQGTQVTVSS | high polyreactivity |

Source: the nanobody polyreactivity screen of Harvey et al. (2022)
